In the DeepSol protein solubility set:

Assay: soluble on expression in E. coli; label from the status in PepcDB or PDB records
With “MLTLTAGKKAAMDRLSTQEGIISALAIDQRGALKKMIKALDVEPTDAQIETFKELVSKELTPYASAILLDPEYGLPAAKARDTEAGLLLAYEKTGYDATTPGRLPDLLADWSVLRLKEEGADAIKFLLYYDVDEDPEINHQKHVFIERLGSECAEEDLPFYLELVSYDAQIADATSLEYAKVKPHKVNEMMKEFSKPQYKVDVLKVEVPVNMNFVEGFAPAETAYTKEEAANYFLEQSQATDLPFIFLSAGVSTELFQETLRFAKEAGSTFNGVLCGRATWKNGVKPFVEAGETAACDWLKTEGRENIESLNEVIAATASSWHAKVQVNEG” the “soluble on expression in E. coli” value was “not soluble”.
For “MGSDKIHHHHHHMSMVSSGNYAEVEKVLTEYPYIAELADHLRDQKMKVIENLDSYVSLTIKNVERLGGHAYLAKDKEEARKIAGDLVGDNKTVVFSKTNVAYEIGLREYLESKHNEVWETDLGEYLIQISKGWPTHIVAPALGMTREDAAKAVKKIDPSINENSTIEDVVAAVRKFLMSKYVKADVGITGANAVAADSGAIALVENEGNIRIDTVMPQTHISITGIDKIVPTLRDALDEVMVQSAYAGLFPPTYINVTAGPSSTADIELRRVSPATGPKNFHLILLDDGRMDASKDEGLKEALLCIKCGRCYFSCPIYRVLGKEWVSTKSPYNGPTGVMWNYITNKDPWPASYCVHSGGCKEVCPMRINIPEVIKYIKYLGSKSL”, the “soluble on expression in E. coli” value was “not soluble”.
For “MKIAVLGATGRAGSAIVAEARRRGHEVLAVVRDPQKAADRLGATVATLVKEPLVLTEADLDSVDAVVDALSVPWGSGRGYLHLDFATHLVSLLRNSDTLAVFILGSASLAMPGADHPMILDFPESAASQPWYDGALYQYYEYQFLQMNANVNWIGISPSEAFPSGPATSYVAGKDTLLVGEDGQSHITTGNMALAILDQLEHPTAIRDRIVVRLEHHHHHH”, the “soluble on expression in E. coli” value was “not soluble”.
In the case of “MDAENRVIINVGGIRHETYKATLKKIPATRLSRLTEGMLNYDPVLNEYFFDRHPGVFAQIINYYRSGKLHYPTDVCGPLFEEELEFWGLDSNQVEPCCWMTYTAHRDTQETLAVL”, the “soluble on expression in E. coli” value was “soluble”.
For “MAHHHHHHMRANPIERRKERETALSVRQRELEELRQRKAQLGEELGMELSALEGDNLAAAFPVIQYCGSRPKKDAKKIPVESLGSVMNQFEIAIKAISQNNRDIEQQITDLNRTIGVEAQRFTKLKRHSKELADATGVSLDPNAVQHLAGKSRDGEDCSGGLKELEETTVVLEERKALVEKEIRAARQLVKKKEEAVLAMSSALESRQEEIDQLNRLYNDIRVVDRDIKCEKETLREIISEHDIVDTKLNEAIERNVSRTRLLIEQGINEIKTEIADSVSVSRRGQERVMKAQEFRIDQLEKRLDCINKALKNNHLTRDVEAIVSHKWAAAGDALVAATPDESMYDIEAIIPPQERCHPAIYNLLLTEKERLARRISLLGIIAKEKKEVIDALACKAEALARECQQAIQELDHVASAAAYEEEMQRVEAMEYIQKQRLHYSDLFKEMWKLKTKNQGPLWRAY”, the “soluble on expression in E. coli” value was “not soluble”.
For “MGSDKIHHHHHHMIHITSLDDGLELFKALGSDIRIQILKILLENNQMSMNQIANELNISNGALTGHIKKLEECGLISASNDSSGHGNQKLCSLIQDRILVEIEKPIDLSNVYNTSIKVGQFSSHNICPTCGLATSSFVIGELDDVRYFDHPDHFNADIMWFTKGYVEYVIPNLIPRNQKITQLSLSAEISSEAPGIDNDWPSDISFYINDTLVGTWTSPGDYGDVRGMFTPEWWPQNWNQYGLLKLLVINHKGTFIDGLKISDITTSELKLDYTSTIRFRIAVEEDSAHVGGLTIFGKSFGNYDQDIVVSINYEPLDTEKNTK”, the “soluble on expression in E. coli” value was “not soluble”.
In the case of “MKIQLIAVGTKMPKWVEEGFQEYRRRFPHDMPLELVEITAGKRGKNADIARILQKEGEAMLAAVPKGNRIVTLDIPGKRWDTEELAVQLESWKLDGRDVSILIGGPEGLAPACKAAADQSWSLSPLTLPHPLVRVVMAESLYRAWSITTNHPYHRELEHHHHHH”, the “soluble on expression in E. coli” value was “soluble”.
For “MNNNDIIRRLRYTFDFNDDKMIQLFALADQQVTRAEISNWMKKDDDPDFKELYDKELAVFLNGFIIDKRGKKDGQTPVAEKSLNNNIIFRKLKIALNLQDDDILDILELADMRFGKHELSALFRNPDQSQFRPCKDQVLRNFIHGLQLKYRKE”, the “soluble on expression in E. coli” value was “not soluble”.
With “MGSDKIHHHHHHMISDLESLGIDFKDEGENYVPKKDYSGNLVAKYVFDSNGISTDNITLKDLSGHGYDGTMSGVSIKDDSELGKCAYFNGSASVNFNNQIIPKGNKTIIITFKKDSGTQSNGQYEFLIEQGSGQGESITSWSIRFDSYKTACLNNLYFCNDDSKINMLNSHPAVFNVCDGKKHTAIFNYYDNKTNNTYCDSLKAHVCSFDFNGGEYRTADNSIIGQKYVGYIKSIEIYDDVVEFNSISTGTSLNKNIDQLIIGQTDNLVATIMPEDVTDKSVIWSSSDPSIVAVDENGKITALKVGEVSITVTTNDGSNLSQTCMVAVIDTTIPDKACLNISMTNGQVKQYYVGMDLVNKFISWYKLRSAGSEEPFYEFDITQLSEPGILRHDYVVFNKISSFTVDDYVK” the “soluble on expression in E. coli” value was “not soluble”.
With “MAHHHHHHMVVFINGLPVLTFELKNSLTKQTVADAVVQYQTDRNPAELLFQLGRCIAHVAVDDAEVRFCTHLTGKTSWFLPFNQGWNSGAGNPPNPNGLRTDYLWKQVLAKESLANIIENYAQVIEEEEEDTNGRKRRTRKQIFPRFHQLRTVRALMRRSRADGVGKRYLIQHSAGSGKSNTIAWLAHQLVELKTAADNTQAQFDSVIVITDRRALDAQIARTIKAYDHVASIYGHSESADELRTFLAPGQEDHRHHGAEVPVHPDELGGTL” the “soluble on expression in E. coli” value was “not soluble”.
With PKQRCRAPACDHFGNAKCNGYCNECFQFKQMYG the “soluble on expression in E. coli” value was “soluble”.
In the case of “MDTLDGLKTVVAVVETNSFTAASDRLGISKALVSKYVGEVENQLGIRLFNRTTRQLALTDSGRRYYEEAIILLEQFSAMVDNVTGEQTAPRGLLRISAPVTFGEMRLAPLLPKFIALYPDLTVELVLTNGAIDMLEEGIDVRLRIGGVDDSNMIARHLTNFPLVLSASPNYAQTQGLPTTPEQLGEHHCIIDSNFRIGKQWPFISPKGRAETINVQSGLAVNSPQAVREIAIADGGIAMTPNFIVEDALADGRLLRVMPEYTTLEFGLFAIYPHRKYVARKVRCFIDFVLEQFSKK”, the “soluble on expression in E. coli” value was “not soluble”.
In the case of “MKCPYCGHPDTRVVDSRPSDEGMAIRRRRECPSCGRRFTTYERTQLEPLMVVKRDGRKEPFNPDKLLRGLLLACEKRPVSEEVLRRFAYTFEDQVSGPEITSEEIGLKALAFLKELDHVAYIRFASVYREFDSVERFIEEIRSLASLN”, the “soluble on expression in E. coli” value was “soluble”.
In the case of “MGSDKIHHHHHHMNIAMFSDTYAPQINGVATSIRVYKKKLTERGHKVVVVAPSAPEEEKDVFVVRSIPFPFEPQHRISIASTKNILEFMRENNVQIIHSHSPFFIGFKALRVQEEMGLPHVHTYHTLLPEYRHYIPKPFTPPKRLVEHFSAWFCNMTNVVIAPTEDIKRELESYGVKRPIEVLPTGIEVEKFEVEAPEELKRKWNPEGKKVVLYAGRIAKEKNLDFLLRVFESLNAPGIAFIMVGDGPEREEVEEFAKEKGLDLKITGFVPHDEIPLYYKLGDVFVFASKTETQGLVLLEALASGLPVVALKWKGVKDVLKNCEAAVLIEEENERLFAEKIKHILKNDRLREELSTKGREFVRKEWSVDRFVQRLEEIYTRAIEEGPVEINTSLMIKEFVKFEKLKEFFSKIEDRIWR”, the “soluble on expression in E. coli” value was “not soluble”.
In the case of “INDPAKSAAPYHDEFPLFRSANMASPDKLSTGIGFHSFRIPAVVRTTTGRILAFAEGRRHTNQDFGDINLVYKRTKTTANNGASPSDWEPLREVVGSGAGTWGNPTPVVDDDNTIYLFLSWNGATYSQNGKDVLPDGTVTKKIDSTWEGRRHLYLTESRDDGNTWSKPVDLTKELTPDGWAWDAVGPGNGIRLTTGELVIPAMGRNIIGRGAPGNRTWSVQRLSGAGAEGTIVQTPDGKLYRNDRPSQKGYRMVARGTLEGFGAFAPDAGLPDPACQGSVLRYNSDAPARTIFLNSASGTSRRAMRVRISYDADAKKFNYGRKLEDAKVSGAGHEGGYSSMTKTGDYKIGALVESDFFNDGTGKNSYRAIIWRRFNLSWILNGPNN”, the “soluble on expression in E. coli” value was “soluble”.
For “MADNYVIWFENLRMTDVERVGGKNASLGEMISQLTEKGVRVPGGFATTAEAYRAFLAHNGLSERISAALAKLDVEDVAELARVGKEIRQWILDTPFPEQLDAEIEAAWNKMVADAGGADISVAVRSSATAEDLPDASFAGQQETFLNINGLDNVKEAMHHVFASLYNDRAISYRVHKGFEHDIVALSAGVQRMVRSDSGASGVMFTLDTESGYDQVVFVTSSYGLGENVVQGAVNPDEFYVFKPTLKAGKPAILRKTMGSKHIKMIFTDKAEAGKSVTNVDVPEEDRNRFSITDEEITELAHYALTIEKHYGRPMDIEWGRDGLDGKLYILQARPETVKSQEEGNRNLRRFAINGDKTVLCEGRAIGQKVGQGKVRLIKDASEMDSVEAGDVLVTDMTDPDWEPVMKRASAIVTNRGGRTCHAAIIARELGIPAVVGCGNATELLKNGQEVTVSCAEGDTGFIYAGLLDVQITDVALDNMPKAPVKVMMNVGNPELAFSFANLPSEGIGLARMEFIINRQIGIHPKALLEFDKQDDELKAEITRRIAGYASPVDFYVDKIAEGVATLAASVYPRKTIVRMSDFKSNEYANLVGGNVYEPHEENPMLGFRGAARYVADNFKDCFALECKALKRVRDEMGLTNVEIMIPFVRTLGEAEAVVKALKENGLERGKNGLRLIMMCELPSNAVLAEQFLQYFDGFSIGSNDMTQLTLGLDRDSGLVSESFDERNPAVKVMLHLAISACRKQNKYVGICGQGPSDHPDFAKWLVEEGIESVSLNPDTVIETWLYLANELNK”, the “soluble on expression in E. coli” value was “soluble”.
With “MSLYYEQPIYIATQENWDLELNPQIRTNRGFGLYSTLRFLDSPYSTGELNFGAFRENSSYFHDENLKNQTHYGIELKYSRDDLIKSLLSDNFQEGLWIDATYLNDVDYLNLGSRDYRDLNSLVTSKINYFLADENNFYGAYARYYIDTSKLSNNTTLQEYPSFQYHRFLNNLFDERLRYSFDASFHNFYRPAGSYANELNLDLPISYHNAFFGDFLHFTFTERFYASFVNYSNDPERNHEHYFRNTHDFNLYTDLSKAYENFFHTLNLGVNYILPGAKSGKITQDYLEEYDKENEHTSLYAVQYFYNNEGQKKLKHRISLDYLNKQNEFYELENLLTYYFNENINLNSEVLYSYEQSRFTNVISQIEVNTNSKFNWMFSHAYQNDEYGKYSFIGTRANYIATPNYNLFGGIWFDTQRAHANMWELGYTYQRKCWNYSLMYRERIDPQLTSGGITAKNQSGVYFIFNFYPLGGVKYDFSLAESENKIEGHHHHHH” the “soluble on expression in E. coli” value was “not soluble”.
In the case of “MAHHHHHHMLRIGICHFSRQEPQVIGTSVPSFRHFPYRAQDVLHLYRDFLRLIHQHPPQERADLLFRLHNEFYRRRHLTSPKMITGAIKRGEGILNVQRSMLESKTLRARGVSSREQGAQNVDGLWDQLQMLSGHVLPGLRNFRPSRNVLKGSYTQQATTQAVYSRRRL”, the “soluble on expression in E. coli” value was “not soluble”.
For “EFVDPSWNYFDNRVHDIAIMEGQSQTKKWQKWLSQIEKRFGVDRNILLAIWSMESNYGKVLANKDVMRDTIRSLATLAYADQKRAKYAQAQLIAAMTILQNGEITRAQLTGSWAGAMGHTQFIPSSYLAYAIDMDGDGRRDIWTSVPDALATAANLLYMNGWQSKLPWGVEVKLPQGKNLPEDWHSFEQWAKLGVKQANGKHLPSLSERAILKYPDGPEGPIFLVTKNFFVLKRYNNADRYAFAVALLANRIAGHSGL”, the “soluble on expression in E. coli” value was “not soluble”.
